# From the nanobody polyreactivity screen of Harvey et al. (2022)
# Test: yeast display, Sf9 membrane polyspecificity reagent, FACS + sequencing; frameworks hold sequencing errors
# Procedure, shortened: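 Nanobodies came from a synthetic yeast display library in Saccharomyces cerevisiae BJ5465, induced with galactose for 36–48 hours and stained for 1 hour at 4 °C with 10% biotinylated, detergent-solubilized Sf9 membrane reagent. Cells were enriched on streptavidin microbeads and then FACS-sorted, with low and high (top ~1%) gates set on anti-HA fluorescence for expression and streptavidin fluorescence for reagent binding. Each polyreactivity label reflects the gate a clone came from. Genes were amplified by colony PCR, sequenced by MiSeq 2 × 250 and filtered by CDR length.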
row,Sequence,polyreactivity (PSR sort gate)
1,QVQHVESGGGLVQAGGSLRLSCAASGITFGRNTMGWYRQAPGKERELVAAIDSGGNTYADSVKGRFTISRDNAKITVYLQMIRQKPEDTAVDSCAVDGGEFSSYGYWGQGTQVTVSS,low polyreactivity
2,QVQLVESGGGLVQAGGSLRLSCAASGSIFYAYALGWYRQAPGKERELVAVISRGGITNYADSVKGRFTISRDNAKNTVYLQMNSLKPEDNAVYYCAAATSACGYLRRYGYWGQGTQVTVSS,low polyreactivity
3,QVQLVESGGGLVQAGGSLRLSCAASGSILYGNDMGWYRQAPGKERELVANITSSDSTYYADSVKGRFTISRDNAKNTVYLQMNSLKPEDTAVYYCASDDVGWGYYVYSYPYDYWGQGTQVNVSS,low polyreactivity
4,QVQLVESGGGLVQAGGSLRLSCAPSGSTIVRYAMGWYRQAPGKERELVAAISGSGGTTYYADSVKGRFTISRDNAKNTVYLQMNSLKPEDTAVYYCATRISAMDYWGQGTQVTVSS,high polyreactivity
5,QVQLVESGGGLVQAGGSLRLSCAATGITFTRYAMGWYRQAPGKEREFVAAIRRSGGNTYYADSVKGRFTISRDNAKNTVYILMNSLKPEDTAVYYCAASFRKTSPTRLVDYWGQGTQVTVSS,low polyreactivity
6,QVQLVESGGCLVQAGGSLRLTCAASGYIFANNARGWYRQAPGTERELVAAISSSGGRTYYADSVKGRFTISRDNAKNTVYLQMNSLKPEDTAVYYCAAESVDNIYYGFDYWGQGTQVTVSS,high polyreactivity
7,QVQLVESGGGLVQAGRSLRLSCAASGRIFGTYAMGWYRQAPGKERELVAAITQSGGRTYYADSVKGRFTISRDNAKNTVYLQMNSLKPEDSAVYFCNIVTYRGIGLGYDYWGHGTQVTVSS,high polyreactivity
8,QVQLVESGGGLVQAGGSLRLSCADSGSTFPGYTMGWYRQAPGKERELVAAIDGSAGDTYYADSVKGRVTISRDNAKNTVYLQMNSLKPEDTEVYYCAADGPYDYSPWLMYYWGQGTQVTVSS,low polyreactivity
9,QVQLVESGGGLVQAGGSLRLSCAASGFTFSEYAMGWYRQAPGKERELVAAISQRGGSTYYADSVKGRFTISRDNAKNTVYLQMNSLKPEDTAVYYCAADSARYYGAKRFGYWGQGTQVTVSS,high polyreactivity
10,QVQLVESGGGLVQAGGSLRLSCAASGITFVPNAMGWYRQAPGKERELVAAINNGGSTYYADSVKGRFTISRDNAKNTVYLQMNSLKPEDTAVYYCAAVSLSTVRGYYYWGQGTQVTVSS,low polyreactivity
11,QVQLVESGGGLVQAGGSLRLSCAASGYTFLPNAMGWYRQAPGKESEFVAAISYSGGRTYYADSVKGRFTISRDNAKNTVYLLMNSLKPEDTAVYYCARDRRYWAVLSDYWGQGTQVTVSS,low polyreactivity
12,QVQLVESGGGLVQAGGSLRLSCAASGFTFISNAMGWYRQAPGKERELVAAISSSGGRTYYADSVKGRFTISRDNAKNTVYLQMNSLKPEDTAVYYCNADRSLLYSRKIEYDYWGQGTQVSVSS,low polyreactivity
13,QDQHVESGGGLVQAGGSLRLSCSASGRTFDYYAMGWYRQAPGKERELVAAINSGGNTYYADSVKGRFTISRDNAKNTVYLQMNSLKPEDTAVYYCAAYYRDKLSGYNYWGQGTQVTVSS,high polyreactivity
14,QVQLVESVGGLVQAGGSLRLSCAASGNNFDIYDMGWYRQAPGKERELVAAISSGGSTYYADSVKGRFTISRDTAKNTVYFQMNSLKPEDSAVYYCAESRVGYYRYEYWGQGTQVTVSS,low polyreactivity
15,QVQLEESGGGLVQAGGSLRLSCAASGLIFIYNTMGWYRQAPGKERQLVAAISGRGGSTYYADSVKGRFTISRDNAKNSVYLQMNSLKPEDTAVYYCAAQDTYHSYGLYSWGQGTQVTVSS,low polyreactivity
16,QVQLVDSGGGLVQAGGSLRLSCAASGSTVTSYAMGWYRQAPGKERELVAAITYGSGTTYADSVKGRFTISRDNAKNTVYLQMNSLKPEDTAVYYCAADFYYPVLGHGFPTYEYDYWGQGTQVTVSS,low polyreactivity
17,QVQLVESGGGLVQAGGSLRLSCAASGSIYTPNVMGWYRQAPGKERELVAAISQSGGSTFYADSVKGRFTISRDNAKNTVYLQMNSLKPEDTAVYYCATEYYGPVYDLDYDYWGQGTQVTVSS,low polyreactivity
18,QVQLVESGGGLVQAGGSLRLSCAASRSTFYIYDMGWYRQAPGKESELVARISGSGVSTYYADSVKGRFTISRDNAKNTVYLQMNSLKPEDTAVYYSAADGISHWLYRYDYWGQGTQVTVSS,low polyreactivity
19,QVQLVESGGGLVQAGGSLRLSCAASGRTFTSYAMGCYRQEPGKERELVAAITRGGRTNYADSVKGRFTISRDNAKNTVYLQMNSLKPEDTAVYYCNTEIRLSKYDYWGQGTQVTVSS,low polyreactivity
20,QVQLVDSGGGLVQAGGSLRLSSAASGRIFNRYAMGWYRQAPGKERELVAAITRGTRTNYADSVKGRFTISRDNAKNTVYLQMNSLKPEDTAVYYCAAAYGRGSDSDYWGQGTQVTVSS,high polyreactivity
21,QVQLVESGGGLVQAGGSLRLTCAASGLTFTTYALGWYRQAPGKERELVAAISRRGSRTYYADSVKGRFTISRDNAKNTVYLQMNSLKPEDTAVYYCNALTGSFKTYSFDYWGQGTQVTVSS,high polyreactivity
22,QVQLVESGGGLVQARGSLRLSCAASGRTFKRYAMGWYRQAPGKERELVAAIAWSGTSTYYADSVKGRLTISRDNAKNTVYLQMNSLIPEDTAVYYCNTPHRSSSVRSYGYWGQGTQVSVSS,high polyreactivity

row,Sequence,polyreactivity (PSR sort gate)
1,QVQLVESGGRLVQAGGSLLLSCAASGIIFYDYAMGWYRRAPGKERQLVAAITSGGSTNYADSVKGRFTISRDNAKNTVYLQMNSLKPEDTAVYYCAATYWSWISLRWYEYYYWGEGTQVTVSS,low polyreactivity
2,QVQLVESGGGLVQAGGSLRLSCAASGSIFYPYAMGCYRQAPGKERELVAAITSSGGSTYYADSVKGRFTISRDNAKNTVYLQMNSLKPEDTAVYYCNAKGPYTAIYYKPFLGSTRFEYWGQGTQVTVSS,high polyreactivity
3,QVQLVESGGGLVQAGGSLRLSCAASGSIFVYYGMGWYRQAPGKEWELVAAMSSGGSSHYADSVKGRFTISRVTAKNSVYLQMNSLKPEDTAVYYCPADGFFWQRSYTRYYYWGQGSQVTVSS,low polyreactivity
4,QVQLVESGGGLVQAGGSLRLSCAASGRIFDIYALGWYRQAPGKERELVAAITWRGGSTYYADSVKGRFTISRDNAKNTVYLQMNSLKPEDTAVYYCAVDFITPRGSYYWGQGTQVTVSS,low polyreactivity
5,QVQLVESGGGLVQAGGSLRLSCAASGSIFYKYTMGWYRQAPGKERELVAAISRSGGSTYYADSVKGRFTISRDNAKNTVYLQMNSLKPEDTAVYYCATTRRVPGEYWGQGTQVTVSS,high polyreactivity
6,QVQLVESGGGLVQAGGSLRLSCAASGFILGVYAMGWYRQAPGKERELVAAISKSGDSTYYADSVKGRFTISRDNAKNTVYLLMNSLKPEDTAVYYCNADWSWYNYYDFDYWGQGTQVTVSS,low polyreactivity
7,KLQLVDSGGGLVQAGGSLRLSCAASGSTIRYYAMGWYRQAPGKERELVAAITISGGGTYADSVKGRFTISRDNAKNTVYLEMNSLKPEDTAVYYCAATYYGFLYRSIGDYWGQGTQVTVSS,low polyreactivity
8,QVQLVESGVRLVQAGGSLLLSCAASGFTFHKNDMGWYRQAPGKERELVATISKSGGSTYYADSVKGRFTISRDNAMNTVYLQMNSLKPEDTAVYYCARRYRDYGRYGYWGQGTQVTVSS,high polyreactivity
9,QVQLVESGGCLVQAGGSLRLSCAASGSTFGYNAMGWYRQATGKERELVAAITWTGASTYYADSVKGRFTISRDNAKNTVYLKINSLKPEDTEVYYCNRVGYQSMNYWGQGTQVTVSS,low polyreactivity
10,QVQLVESGGGLVQAGGSLRLSCAASGRIFYGYAMGWYIHAPGKERELVAAITYSGGITYYADSVKGRFTISRDNAKNTVYLQMNSLKPEDTAVYYCATSKSSVTGPDLDYWGQGTQVTVSS,high polyreactivity
11,QVQLVESGGGLVQAGGSLRLSCAASGRIFYSNAMGWYRQAPGKERELVAANTSGGNTYYADSVKGRFTISRDNAKNTVYLLMNSLKPEDTAVYYCAADHYWRRSGFGYWGQGTQVTVSS,low polyreactivity
12,QVQLVESGGGLVQAGGSLRLSCAASGRTFRNYAMGWYRQAPGKERELVAAISASGGSTYYADSVKGRFTISRDNAKNTVYLQMNSLKPEDTAVYYCAARYQGFGYRKYDYWGQGTQVTVSS,high polyreactivity
13,QVQLVESGGGLVQAGGSLRLSCAASGSTFLWYAMGWYTQAPGKERELVATISGSGGSTYYADSVKGRFTISRDNAKNTVYLQMNSLKPEDTAGYYCAAGTLVQRSRWVTFSAYDGDYWGQGTQVTVSS,high polyreactivity
14,QVQLVESGGGLVQAGGSLRLSCAASGGIFTYYTMGWYRQAPGKERELVAAISRRVGRTYYADSVKGRFTISRDKANNTVYLQMNSLKPEDTAVYYCNADSRRRLFDYWGQGTQVTVSS,high polyreactivity
15,QVQIVESGGGLVQAGGSLRLSCAASGSIFGYYVMGWNRQAPGKERELVAAISSGGGNTYYADSVKGRFTISRDNAKNTVYLQMISLKPEDTAVYYCAALRSWRKTGGAQRYWYDYWGHGTQVTVSS,high polyreactivity
16,QVQLVESGGGLVQAGGSLRLSCAASGSSLWENAMGWYRQAPGKERQLVATISVSGGGTYYADSVKGRFTISRDNAKNTVYLQMTSLKPEDTAVYYCTARYGNESQGWADYWGQGTQVTVSS,low polyreactivity
17,QVQLVESGGGLVQAGGSLRLSCAASGITFYRYAMGWYRPAPGKERELVAAISSSGGSTYYADSVKGRFTISRDNAKNSVYLQMNRLKPEDTAVYYCNAVVQNPQEYDYWGQGTQVTVSS,high polyreactivity
18,QVQLVESGGGLVQAGGSLRLSCASSGRTFPAYVMGWYREAPGKERDLVAAISRGGSTYYADSVKGRFTISRDNAKNTVYFQMNSLKPEDTAVFYCAARWSYSRYTGNDYSRLGKFYYWGQGTQVTVSS,high polyreactivity
19,QVQLVESGGGLVQAGGSLRLSCAASGRIFFSNAMGWYRQAPGKERELVASITGGDDTNYADSVKGRFTISRDNAKNTVYLQMNSLKPEDTAVYYCAARAIPSYRWVYRFAPKYDYWGQGTQVTVSS,low polyreactivity
20,QVQLVESGGGLVQAGGSLRLSCAASGRIFDVNAMGWYRQAPGKERELVAAIRSGGRTNYADSVKGRFTISRDNAKNTVYLQMNSLKPEDTAVYYCAAVVWSSLDDYWGLGTQVTVSS,high polyreactivity
21,QVQLVETGGGLVQAGGSLRLSCAASGSIFLVYAMGWNRPAPGKQRQVVAAIRWSGGSTYYADSVKGRFTISRDNAKKTVYLQMNSLKPEDTAVYYCNAGESYSVKGGPYDSDYWGQGTQVTVSS,low polyreactivity
